Our source for the OD450 nm and Ratio OD(Variant)/OD(WT) values is patent US20240400654A1.

To fix the notation:
B1: KB001 mouse Fab VL T100D (Fab, V domains shown)
VH: EVQLKQSGPGLVAPSQSLSITCTVSGFSLSIYSVHWVRQPPGKGLEWLGMIWGGGSSDYNSALKSRLSISKDNSKSQVFLKMNSLQTDDTAMYYCARNGNFYAMDYWGQGTSVTVSS
VL: QIVLTQSPAIMSASLGERVTMTCTASSSVSSSFLHWYQQKPGSSPQLWIYSTSNLASGVPARFSGSGSGTSYSLTISSMEAEDAATYYCHQYHHSPYIYDFGGGTKLEIK
B2: KB001 mouse Fab VH L63F (Fab, V domains shown)
VH: B1 VH with L63F
VL: B1 VL with D100T
B3: KB001 mouse Fab VH K64S (Fab, V domains shown)
VH: B1 VH with K64S
VL: B1 VL with D100T
B4: KB001 mouse Fab VH K64V (Fab, V domains shown)
VH: B1 VH with K64V
VL: B1 VL with D100T
B5: KB001 mouse Fab VH K64M (Fab, V domains shown)
VH: B1 VH with K64M
VL: B1 VL with D100T
B6: KB001 mouse Fab VH L63M (Fab, V domains shown)
VH: B1 VH with L63M
VL: B1 VL with D100T
B7: KB001 mouse Fab VH K64Y (Fab, V domains shown)
VH: B1 VH with K64Y
VL: B1 VL with D100T
B8: KB001 mouse Fab VH K64G (Fab, V domains shown)
VH: B1 VH with K64G
VL: B1 VL with D100T
B9: KB001 mouse Fab VL T100K (Fab, V domains shown)
VH: B1 VH
VL: B1 VL with D100K
B10: KB001 mouse Fab VH K64H (Fab, V domains shown)
VH: B1 VH with K64H
VL: B1 VL with D100T
B11: KB001 mouse Fab VH K64I (Fab, V domains shown)
VH: B1 VH with K64I
VL: B1 VL with D100T
B12: KB001 mouse Fab variant VL L55R/S51G (Fab, V domains shown)
VH: B1 VH
VL: B1 VL with S51G, L55R, D100T
B13: KB001 mouse Fab variant VL S57A (Fab, V domains shown)
VH: B1 VH
VL: B1 VL with S57A, D100T
B14: KB001 mouse Fab variant VL S57Q (Fab, V domains shown)
VH: B1 VH
VL: B1 VL with S57Q, D100T
B15: KB001 mouse Fab variant VL L55H (Fab, V domains shown)
VH: B1 VH
VL: B1 VL with L55H, D100T
B16: KB001 mouse Fab variant VL L55Q (Fab, V domains shown)
VH: B1 VH
VL: B1 VL with L55Q, D100T
B17: KB001 mouse Fab variant VL H90L (Fab, V domains shown)
VH: B1 VH
VL: B1 VL with H90L, D100T
B18: KB001 mouse Fab variant VL A56Q (Fab, V domains shown)
VH: B1 VH
VL: B1 VL with A56Q, D100T
B19: KB001 mouse Fab variant VL H90W (Fab, V domains shown)
VH: B1 VH
VL: B1 VL with H90W, D100T
B20: KB001 mouse Fab variant VL S57N (Fab, V domains shown)
VH: B1 VH
VL: B1 VL with S57N, D100T
B21: KB001 mouse Fab variant VL S57K (Fab, V domains shown)
VH: B1 VH
VL: B1 VL with S57K, D100T
B22: KB001 mouse Fab variant VL S57W (Fab, V domains shown)
VH: B1 VH
VL: B1 VL with S57W, D100T
B23: KB001 mouse Fab variant VL A56T (Fab, V domains shown)
VH: B1 VH
VL: B1 VL with A56T, D100T
B24: KB001 mouse Fab variant VL S57M (Fab, V domains shown)
VH: B1 VH
VL: B1 VL with S57M, D100T
B25: KB001 mouse Fab variant VL S57F (Fab, V domains shown)
VH: B1 VH
VL: B1 VL with S57F, D100T
B26: KB001 mouse Fab variant VL S57E (Fab, V domains shown)
VH: B1 VH
VL: B1 VL with S57E, D100T
B27: KB001 mouse Fab variant VL A56N (Fab, V domains shown)
VH: B1 VH
VL: B1 VL with A56N, D100T
B28: KB001 mouse Fab variant VL A56R (Fab, V domains shown)
VH: B1 VH
VL: B1 VL with A56R, D100T
B29: KB001 mouse Fab variant VL A56M (Fab, V domains shown)
VH: B1 VH
VL: B1 VL with A56M, D100T
B30: KB001 mouse Fab variant VL Q91M (Fab, V domains shown)
VH: B1 VH
VL: B1 VL with Q91M, D100T
B31: KB001 mouse Fab variant VL S57I (Fab, V domains shown)
VH: B1 VH
VL: B1 VL with S57I, D100T
B32: KB001 mouse Fab variant VL A56P (Fab, V domains shown)
VH: B1 VH
VL: B1 VL with A56P, D100T
B33: KB001 mouse Fab variant VL S57R (Fab, V domains shown)
VH: B1 VH
VL: B1 VL with S57R, D100T
B34: KB001 mouse Fab variant VL S57L (Fab, V domains shown)
VH: B1 VH
VL: B1 VL with S57L, D100T
B35: KB001 mouse Fab variant VL A56V (Fab, V domains shown)
VH: B1 VH
VL: B1 VL with A56V, D100T
B36: KB001 mouse Fab variant VL A56S (Fab, V domains shown)
VH: B1 VH
VL: B1 VL with A56S, D100T
B37: KB001 mouse Fab variant VL L55S (Fab, V domains shown)
VH: B1 VH
VL: B1 VL with L55S, D100T

Positions count from the first letter of the chain named. Names may count otherwise. “And” between values parts separate entries of the source, which are not always exact repeats. Equal entries are not always repeated.

The first assay concerns the target HRgpA-6H (Porphyromonas gingivalis) (UniProt P28784). The experiment in a line: ELISA, coated HRgpA-6H.
Chain of UniProt P28784 (P28784 228-860 limits assumed): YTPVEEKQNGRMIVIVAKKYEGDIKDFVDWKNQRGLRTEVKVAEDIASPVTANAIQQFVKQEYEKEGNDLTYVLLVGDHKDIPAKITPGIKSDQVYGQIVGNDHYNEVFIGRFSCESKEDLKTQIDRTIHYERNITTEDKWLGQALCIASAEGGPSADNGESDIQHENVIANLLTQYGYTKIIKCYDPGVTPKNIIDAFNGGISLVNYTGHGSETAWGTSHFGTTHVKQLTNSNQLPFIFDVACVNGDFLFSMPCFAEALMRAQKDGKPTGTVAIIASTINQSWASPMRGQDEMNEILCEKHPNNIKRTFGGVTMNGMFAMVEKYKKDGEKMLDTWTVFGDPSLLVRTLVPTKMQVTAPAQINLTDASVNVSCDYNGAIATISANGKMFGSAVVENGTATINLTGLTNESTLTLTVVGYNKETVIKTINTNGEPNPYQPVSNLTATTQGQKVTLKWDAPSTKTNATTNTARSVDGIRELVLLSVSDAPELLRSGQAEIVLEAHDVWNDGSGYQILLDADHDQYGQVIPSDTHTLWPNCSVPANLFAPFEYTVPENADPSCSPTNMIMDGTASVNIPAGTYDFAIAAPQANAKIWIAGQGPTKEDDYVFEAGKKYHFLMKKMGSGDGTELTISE
B1: the OD450 nm amounted to 0.645 and the Ratio OD(Variant)/OD(WT) was found to be 1.23.

With B2, the OD450 nm came to 0.743 and the Ratio OD(Variant)/OD(WT) is 0.85.

In the case of B3, the OD450 nm stood at 0.808 and the Ratio OD(Variant)/OD(WT) turned out to be 0.977.

Turning to B4, the OD450 nm was 0.715 and 0.714; the Ratio OD(Variant)/OD(WT) was 0.865 and 0.863.

As for B5, the OD450 nm is 0.799 and 0.757 and 0.78; the Ratio OD(Variant)/OD(WT) was 0.966 and 0.915 and 0.943.

With B6, the OD450 nm worked out at 0.8 and the Ratio OD(Variant)/OD(WT) was found to be 0.915.

B7: the OD450 nm was found to be 0.763 and the Ratio OD(Variant)/OD(WT) worked out at 0.923.

With B8, the OD450 nm was found to be 0.806 and the Ratio OD(Variant)/OD(WT) was 0.975.

Regarding B9, the OD450 nm was 0.625 and the Ratio OD(Variant)/OD(WT) was found to be 1.19.

With B10, the OD450 nm stood at 0.752 and the Ratio OD(Variant)/OD(WT) is 0.909.

In the case of B11, the OD450 nm is 0.743 and 0.756 and 0.715; the Ratio OD(Variant)/OD(WT) was 0.898 and 0.914 and 0.865.

The next assay shares this target. The experiment in a line: ELISA, FASEBA Fab supernatant on coated HRgpA-6H. On the technique in general: ELISA stands for enzyme-linked immunosorbent assay.
B12 showed an OD450 nm of 0.748.

B13 returned an OD450 nm of 0.806.

B14 came in with an OD450 nm of 0.658.

As to B15, the OD450 nm is 0.64.

On to B16, for which the OD450 nm worked out at 0.662.

For the molecule B17, the OD450 nm was 0.785 and 0.694.

On to B18, for which the OD450 nm turned out to be 0.705.

B19 showed an OD450 nm of 0.763.

B20 displayed an OD450 nm of 0.813.

In the case of B21, the OD450 nm amounted to 0.712.

B22 displayed an OD450 nm of 0.784.

B23 yielded an OD450 nm of 0.731.

Consider B24, for which the OD450 nm is 0.745.

Consider B25, for which the OD450 nm was 0.785 and 0.787 and 0.797.

B26: the OD450 nm was determined as 0.751.

Turning to B27, the OD450 nm was 0.712 and 0.775.

In the case of B28, the OD450 nm is 0.728 and 0.734 and 0.751.

In the case of B29, the OD450 nm was 0.802 and 0.701.

For the molecule B30, the OD450 nm is 0.757.

Consider B31, for which the OD450 nm stood at 0.791.

The molecule B32 had an OD450 nm of 0.748.

The molecule B33 showed an OD450 nm of 0.746.

The molecule B34 registered an OD450 nm of 0.781.

Turning to B35, the OD450 nm was 0.794 and 0.795.

Regarding B36, the OD450 nm is 0.772 and 0.751 and 0.774.

B37 yielded an OD450 nm of 0.655.

Another assay has the same target. Nature of the assay: ELISA on coated HRgpA-6H, OD relative to parental Fab.
Regarding B12, the Ratio OD(Variant)/OD(WT) turned out to be 0.955 fold.

With B13, the Ratio OD(Variant)/OD(WT) was found to be 0.988 fold.

Take B14: the Ratio OD(Variant)/OD(WT) was determined as 0.807 fold.

Regarding B15, the Ratio OD(Variant)/OD(WT) amounted to 0.817 fold.

Consider B16, for which the Ratio OD(Variant)/OD(WT) stood at 0.845 fold.

Consider B17, for which the Ratio OD(Variant)/OD(WT) was 0.911 fold and 0.806 fold.

Consider B18, for which the Ratio OD(Variant)/OD(WT) came to 0.865 fold.

Take B19: the Ratio OD(Variant)/OD(WT) came out at 0.886 fold.

B20: the Ratio OD(Variant)/OD(WT) was found to be 0.997 fold.

Regarding B21, the Ratio OD(Variant)/OD(WT) came out at 0.873 fold.

In the case of B22, the Ratio OD(Variant)/OD(WT) was 0.961 fold.

In the case of B23, the Ratio OD(Variant)/OD(WT) was determined as 0.896 fold.

For the molecule B24, the Ratio OD(Variant)/OD(WT) was determined as 0.914 fold.

B25: the Ratio OD(Variant)/OD(WT) was 0.963 fold and 0.965 fold and 0.977 fold.

For B26, the Ratio OD(Variant)/OD(WT) was 0.921 fold.

For B27, the Ratio OD(Variant)/OD(WT) is 0.873 fold and 0.95 fold.

With B28, the Ratio OD(Variant)/OD(WT) is 0.893 fold and 0.9 fold and 0.921 fold.

For B29, the Ratio OD(Variant)/OD(WT) is 0.983 fold and 0.86 fold.

Take B30: the Ratio OD(Variant)/OD(WT) was 0.879 fold.

Turning to B31, the Ratio OD(Variant)/OD(WT) stood at 0.97 fold.

Regarding B32, the Ratio OD(Variant)/OD(WT) amounted to 0.917 fold.

B33: the Ratio OD(Variant)/OD(WT) amounted to 0.915 fold.

With B34, the Ratio OD(Variant)/OD(WT) amounted to 0.958 fold.

Regarding B35, the Ratio OD(Variant)/OD(WT) was 0.974 fold and 0.975 fold.

Regarding B36, the Ratio OD(Variant)/OD(WT) is 0.947 fold and 0.921 fold and 0.949 fold.

Turning to B37, the Ratio OD(Variant)/OD(WT) stood at 0.836 fold.
